Source: paper doi:10.1101/2023.04.24.538075 (bioRxiv, 2023)

Target: T1, Cdc24-H (S. cerevisiae, UniProt P11433 1-854)
T1 sequence: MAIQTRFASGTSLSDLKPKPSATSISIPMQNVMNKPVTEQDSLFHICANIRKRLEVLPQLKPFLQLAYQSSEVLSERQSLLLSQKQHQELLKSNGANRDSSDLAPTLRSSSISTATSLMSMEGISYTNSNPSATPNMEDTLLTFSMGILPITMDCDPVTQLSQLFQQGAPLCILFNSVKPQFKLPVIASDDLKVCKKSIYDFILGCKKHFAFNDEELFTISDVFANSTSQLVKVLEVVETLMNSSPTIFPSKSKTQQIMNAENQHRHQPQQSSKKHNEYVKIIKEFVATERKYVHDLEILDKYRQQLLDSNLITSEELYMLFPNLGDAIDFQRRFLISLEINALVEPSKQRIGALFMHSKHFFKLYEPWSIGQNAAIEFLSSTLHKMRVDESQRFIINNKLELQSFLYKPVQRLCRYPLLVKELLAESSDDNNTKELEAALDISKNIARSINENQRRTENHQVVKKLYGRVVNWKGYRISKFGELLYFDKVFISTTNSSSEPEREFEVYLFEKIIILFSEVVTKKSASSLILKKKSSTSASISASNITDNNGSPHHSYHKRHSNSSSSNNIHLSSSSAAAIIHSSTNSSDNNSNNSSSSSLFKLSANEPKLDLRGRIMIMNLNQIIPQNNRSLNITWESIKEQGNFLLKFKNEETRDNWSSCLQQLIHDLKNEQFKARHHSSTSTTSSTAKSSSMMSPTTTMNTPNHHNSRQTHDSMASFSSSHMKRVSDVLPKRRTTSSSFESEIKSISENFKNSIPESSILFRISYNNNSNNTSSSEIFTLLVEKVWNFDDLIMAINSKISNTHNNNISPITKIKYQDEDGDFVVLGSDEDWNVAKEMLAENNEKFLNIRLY
Assay: pull-down

- binding result: binds
B1: H-Bem1-F (natural protein)
chain: MLKNFKLSKRDSNGSKGRITSADISTPSHDNGSVIKHIKTVPVRYLSSSSTPVKSQRDSSPKNRHNSKDITSPEKVIKAKYSYQAQTSKELSFMEGEFFYVSGDEKDWYKASNPSTGKEGVVPKTYFEVFDRTKPSSVNGSNSSSRKVTNDSLNMGSLYAIVLYDFKAEKADELTTYVGENLFICAHHNCEWFIAKPIGRLGGPGLVPVGFVSIIDIATGYATGNDVIEDIKSVNLPTVQEWKSNIARYKASNISLGSVEQQQQQSITKPQNKSAKLVDGELLVKASVESFGLEDEKYWFLVCCELSNGKTRQLKRYYQDFYDLQVQLLDAFPAEAGKLRDAGGQWSKRIMPYIPGPVPYVTNSITKKRKEDLNIYVADLVNLPDYISRSEMVHSLFVVLNNGFDREFERDENQNNIKTLQENDTATFATASQTSNFASTNQDNTLTGEDLKLNKKLSDLSLSGSKQAPAQSTSGLKTTKIKFYYKDDIFALMLKGDTTYKELRSKIAPRIDTDNFKLQTKLFDGSGEEIKTDSQVSNIIQAKLKISVHDI
